Variants at the floor of the assay were thinned out.
B1: TPR 5TU (parent)
chain: GGAUCUUCUCGAUCUAACAAAAAAGACAAAUCUGCCACAAAGCUUGAGAGCAUCUUCGGAUGCAGAGGCGGCAGCCUUCGGUGGCGCGAUAGCGCCAACGUUCUCAACUAUGACACGCAAAACGCGUGCUCCGUUGAAUGGAGUUUAUCAUG

Variants of: B1
Assay: polymerase ribozyme fitness, log enrichment relative to wild type (log ratio); higher = more active; in vitro selection for triplet polymerase activity
Method in brief: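 Fitness is a logarithmic measure of how a genotype enriched relative to the wild type, with replicate averages weighted by inverse variance. The logarithm uses base 2, and enrichment came from Illumina sequencing of input and output libraries. Those libraries were PCR-built, transcribed mutants of each subunit of a heterodimeric triplet polymerase ribozyme, passed through one triplicate in vitro selection round that included frozen incubation at −7 °C, gel excision of extended constructs and streptavidin-bead capture. Genotypes were kept only if they had ≥10 input reads and ≥1 read per output.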

Point of comparison: GGAUCUUCUCGAUCUAACAAAAAAGACAAAUCUGCCACAAAGCUUGAGAGCAUCUUCGAAUGCAGGGGCGGCAGCCUUCGGUGGCGCGAUAGCGCCAACGUUCUCAACUAUGACACGCAAAACGCGUGCUCCGUUGAAUGGAGUUUAUCAUG [G59A A66G], “polymerase ribozyme fitness (log ratio)” value -3.24. Against it:
- GGAUCUUCUCGAUCUAACAAAAAAGACAAAUCUGCCACAAAGCUUGAGAGCAUCUUCUGAUGCAGAGGCGGCAGCCUUCGGUGGCGCGAUAGCGCCAACGUUCUCAACUAUGACACGCAAAACGCGUGCUCGGUUGAAUGGAGUUUAUCAUG [G58U C132G] — higher, -2.82
- GGAUCUUCUCGAUCUAACAAAAAAGACAAAUCUGCCACAAAGCUUGAGAGCAUCUUCUGAUGCAGAGGCGGCAGCCUUCGGUAGUGCGAUAGCGCCAACGUUCUCAACUAUGACACGCAAAACGCGUGCUCCGUUGAAUGGAGUUUAUCAUG [G58U G83A C85U] — higher, -0.262
- GGAUCUUCUCGAUCUAACAAAAAAGACAAAUCUGCCACAAAGCUUGAGAGCAUCUUCUGAUGCAGAGGCGGCAGCCUUCGGAGUCGCGAUAGCGCCAACGUUCUCAACUAUGACACGCAAAACGCGUGCUCCGUUGAAUGGAGUUGAUCAUG [G58U U82A G84U U146G] — higher, -2.04
- GGAUCUUCUCGAUCUAACAAAAAAGACAAAUCUGCCACAAAGCUUGAGAGCAUCUUCUGAUGCAGAGGCGGCAGCCUUCGGUGGCGCCAUAGCGCCAACGUUCUCAACUAUGACACGCAAAACGCGUGCGCCGUUGAAUGGAGUUUAUCAUG [G58U G88C U130G] — lower, ≤ -4.2
- GGAUCUUCUCGAUCUAACAAAAAAGACAAAUCUGCCACAAAGCUUGAGAGCAUCUUCUGAAGCAGAGGCGGCAGCCUUCGGUGGCGCGAAAGCGCCAACGUUCUCAACUAUGACACGCAAAACGCGUGCUCCGUUGAAUGGGGUUUAUCAUG [G58U U61A U90A A142G] — lower, ≤ -4.2
- GGAUCUUCUCGAUCUAACAAAAAAGACAAAUCUGCCACAAAGCUUGAGAGCAUCUUCGAAUGCCGAGGCGGCAGCCUUCGGUGGCGCCAUAGCGCCAACGUUCUCAACUAUGACACGCAAAACGCGUGCUCCGUUGAAUGGAGUUUAUCAUG [G59A A64C G88C] — lower, ≤ -4.2
- GGAUCUUCUCGAUCUAACAAAAAAGACAAAUCUGCCACAAAGCUUGAGAGCAUCUUCUGAUGCAGAGGCGGCAGCCUUCGAUGGCGCGAUAGCGCCAACGUUCUCAACUAUGACACGCAAAGCGCGUGCUCCGUUGAAUGGAGUUUAUCAUG [G58U G81A A122G] — higher, -0.315
- GGAUCUUCUCGAUCUAACAAAAAAGACAAAUCUGCCACAAAGCUUGAGAGCAUCUUCUGAGGUAGAGGCGGCACCCUUCGGUGGCGCGAUAGCGCCAACGUUCUCAACUAUGACACGCAAAACGCGUGCUCCGUUGAAUGCAGUUUAUCAUG [G58U U61G C63U G74C G141C] — lower, ≤ -4.2
- GGAUCUUCUCGAUCUAACAAAAAAGACAAAUCUGCCACAAAGCUUGAGAGCAUCUUCUGAUGCAGAGGCGGCAGCCUUCGGUGGCGCGAUAGCGCCAACGUUCUCAACUAUGACACGCAAAACGCGUGCUCCGUUGAAUGGAGUUUAUCAUU [G58U G152U] — higher, -2.71
- GGAUCUUCUCGAUCUAACAAAAAAGACAAAUCUGCCACAAAGCUUGAGAGCAUCUUCGAAUGCAGAGGCGGCAGCCUUCGGUGGCGCGUUAGCGCCAACGUUCUCAACUAUGACACGCAAAACGCGUGCUCCGUUGAAUGGAGUUUAUCAUG [G59A A89U] — higher, -0.162
- GGAUCUUCUCGAUCUAACAAAAAAGACAAAUCUGCCACAAAGCUUGAGAGCAUCUUCGACUGCAGAGGCGGCAGCCUUCGGUGGCGCGAUAGCGCCAACGUUCUCAACUAUGACACGCAAAACGCGUGCUCCGUUGAAUGGAGUUUAUCAUG [G59A A60C] — higher, -1.48
- GGAUCUUCUCGAUCUAACAAAAAAGACAAAUCUGCCACAAAGCUUGAGAGCAUCUUCGAGUGCAGAGGCGGCAGCCUUCGGUGGCGCGAUAGCGCCAACGUUCUCAACUAUGACACGCAAAACGCGUGCUCCGUUGAAUGGAGUUUAUCAUG [G59A A60G] — higher, -0.0653
- GGAUCUUCUCGAUCUAACAAAAAAGACAAAUCUGCCACAAAGCUUGAGAGCAUCUUCUGAUGCAGAGGCGGCAGCCUUCGGUGGCACGAUAGCGCCAACGUUCUCAACUAUGACACGCAAAACGCGUGCCCCGUUGAAUGGAGUUUAUCAUG [G58U G86A U130C] — higher, 0.803
- GGAUCUUCUCGAUCUAACAAAAAAGACAAAUCUGCCACAAAGCUUGAGAGCAUCUUCUGAUGCAGAGGCGGCAGCCUGUAGUGGUGCGAUAGCGCUAACGUUCUCGACUAUGACACGCAAAACGCGUGCUCCGUUGAAUGGAGUUUCUCAUG [G58U U78G C79U G80A C85U C96U A106G A147C] — lower, ≤ -4.2
- GGAUCUUCUCGAUCUAACAAAAAAGACAAAUCUGCCACAAAGCUUGAGAGCAUCUUCGAAUGCAGAGGCGGCAGCCUUCGGUGGCGCGAUAGCGCCAACGUUCUCAACUAUGACACGCAAAACGCGUGCUCCGUUGAAUGGAGUUUUUCAUG [G59A A147U] — higher, 1.25
- GGAUCUUCUCGAUCUAACAAAAAAGACAAAUCUGCCACAAAGCUUGAGAGCAUCUUCGAAUGCAGAGGAGGCAGCCUUCGGUGGCUCGCUAGCGGCAACGUUCUCAACUAUGACACGCAAAACGCGUGCUCCGUUGAAUGGAGUUUAUCAUG [G59A C69A G86U A89C C95G] — lower, ≤ -4.2
- GGAUCUUCUCGAUCUAACAAAAAAGACAAAUCUGCCACAAAGCUUGAGAGCAUCUUCGAAUGCAGAGGCGGCAGCCUUCGGUGGCGCGAUAGCGCCAACGUUCUCAACUAUGACACGCUAAACGCGUGCUCCGUUGAAUGGAGUUUAUCAUG [G59A A119U] — higher, -0.778
- GGAUCUUCUCGAUCUAACAAAAAAGACAAAUCUGCCACAAAGCUUGAGAGCAUCUUCGAAUGCAGAGGCGGCAGCCUUCGGUGGCGCGAUAGCGCCAACGUUCUCAACUAUGACACGCAAAACGCGUGCUCCGUUGAAUGGAGUUUAUCAUG [G59A] — higher, -0.0739
